Laboratory results reported in patent US20260124312A1 (Bicycle, published 2026).
*1 amine or outer side, *2 acyl side, *3 side chain or, on linkers, in order; H or OH if unused. Bridges are numbered along the chain shown (N, C = ends). Where no end group is shown, it is not given here. [ ]: non-standard residue; d: D form. The star is where a group is joined. DM1‑SS‑ = DM1-SS- (SPDB) linker/toxin, COc1cc2cc(c1Cl)N(C)C(=O)C[C@H](OC(=O)[C@H](C)N(C)C(=O)CCSSCCCC(=O)*)[C@]1(C)O[C@H]1[C@H](C)[C@@H]1C[C@@](O)(NC(=O)O1)[C@H](OC)/C=C/C=C(\C)C2; TATA = O=C(CC[*:1])N1CN(C(=O)CC[*:2])CN(C(=O)CC[*:3])C1; DM1‑SS(SO3H)‑ = DM1-SS(SO3H)- (SO3H-SPDB) linker/toxin; DM1‑SS‑(Me)‑ = DM1-SS-(Me)- (SPP) linker/toxin; PABC = O=C(OCc1ccc(N[*:1])cc1)[*:2]; Glutaryl = O=C(CCCC(=O)[*:2])[*:1]; hArg = N=C(N)NCCCC[C@H](N)C(=O)O; Cit = NC(=O)NCCC[C@H](N)C(=O)O; βAla = NCCC(=O)O; Sar = CNCC(=O)O

Assays:
[1] = biological target: Human EphA2 (in house, 0.95 mol biotin/monomer) (Human) (UniProt P29317); experiment: SPR (Biacore), biotinylated human EphA2 on streptavidin chip
[2] = biological target: Mouse EphA2 Fc fusion (R&D Systems 639-A2) (Mouse) (UniProt Q03145); experiment: SPR (Biacore), mouse EphA2-Fc captured by anti-human IgG
[3] = biological target: Rat EphA2 (in house, 1.4 mol biotin/monomer) (Rat) (UniProt D3ZBN3); experiment: SPR (Biacore), biotinylated rat EphA2 on streptavidin chip
Mouse EphA2 (Ecto) = biological target: T1, Mouse EphA2 (Ecto) (Mouse, UniProt Q03145 26-538); experiment: FP competition vs Reference Compound C
T1 construct: extracellular domain
T1 sequence (Q03145 26-538): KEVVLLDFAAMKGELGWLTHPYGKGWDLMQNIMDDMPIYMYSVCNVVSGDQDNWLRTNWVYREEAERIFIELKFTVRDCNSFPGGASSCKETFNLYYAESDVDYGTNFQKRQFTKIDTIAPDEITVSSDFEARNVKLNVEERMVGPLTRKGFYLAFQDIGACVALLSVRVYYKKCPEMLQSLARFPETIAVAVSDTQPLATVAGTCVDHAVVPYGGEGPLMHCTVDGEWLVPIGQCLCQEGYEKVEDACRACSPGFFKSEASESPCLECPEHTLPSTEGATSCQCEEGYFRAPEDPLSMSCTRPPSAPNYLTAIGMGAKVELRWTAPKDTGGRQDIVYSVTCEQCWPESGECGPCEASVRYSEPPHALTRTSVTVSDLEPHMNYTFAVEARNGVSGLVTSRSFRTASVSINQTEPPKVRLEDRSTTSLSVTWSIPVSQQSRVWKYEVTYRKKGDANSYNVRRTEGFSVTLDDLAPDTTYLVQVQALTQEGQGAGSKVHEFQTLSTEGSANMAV

Chain of Human EphA2 (in house, 0.95 mol biotin/monomer) (Human) (P29317 25-534 limits assumed): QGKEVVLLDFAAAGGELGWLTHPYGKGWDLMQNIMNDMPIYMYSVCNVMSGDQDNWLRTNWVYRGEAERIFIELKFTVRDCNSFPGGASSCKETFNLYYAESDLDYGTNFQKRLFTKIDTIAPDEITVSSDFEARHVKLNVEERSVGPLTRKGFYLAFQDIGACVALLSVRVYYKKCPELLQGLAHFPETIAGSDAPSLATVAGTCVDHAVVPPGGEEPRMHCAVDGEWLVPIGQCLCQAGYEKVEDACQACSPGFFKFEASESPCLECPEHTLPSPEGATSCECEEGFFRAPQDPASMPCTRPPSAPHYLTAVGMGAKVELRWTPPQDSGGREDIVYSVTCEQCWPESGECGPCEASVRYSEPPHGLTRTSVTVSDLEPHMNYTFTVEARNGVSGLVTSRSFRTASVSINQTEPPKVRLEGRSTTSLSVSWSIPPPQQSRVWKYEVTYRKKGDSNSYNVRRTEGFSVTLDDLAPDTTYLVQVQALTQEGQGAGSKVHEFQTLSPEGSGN
Chain of Mouse EphA2 Fc fusion (R&D Systems 639-A2) (Mouse) (Q03145 26-538): as the sequence (Q03145 26-538) above

Kd [1] [nM]	koff [1] [s⁻¹]	kon [1] [M⁻¹ s⁻¹]	t1/2 [1] [min]	Kd [2] [nM]	koff [2] [s⁻¹]	kon [2] [M⁻¹ s⁻¹]	t1/2 [2] [min]	Kd [3] [nM]	koff [3] [s⁻¹]	kon [3] [M⁻¹ s⁻¹]	t1/2 [3] [min]	Ki (Mouse EphA2 (Ecto)) [nM]	Binder
2.1	0.00527	2.52e+06	2.2										{DM1‑SS‑(Me)‑}-[βAla][Sar][Sar][Sar][Sar][Sar][Sar][Sar][Sar][Sar][Sar]A[hArg]DCPLVNPLCLHPGWTC (linker 15-22-29 via TATA; not fully specified (C-terminus)) [BCY6032]
1.99	0.00495	2.49e+06	2.3										{DM1‑SS‑}-[βAla][Sar][Sar][Sar][Sar][Sar][Sar][Sar][Sar][Sar][Sar]A[hArg]DCPLVNPLCLHPGWTC (linker 15-22-29 via TATA; not fully specified (C-terminus)) [BCY6031]
1.64	0.00365	2.23e+06	3.2										{MMAE-PABC-Cit-Trp-Glutaryl}-[βAla][Sar][Sar][Sar][Sar][Sar][Sar][Sar][Sar][Sar][Sar]A[hArg]DCPLVNPLCLHPGWTC (linker 15-22-29 via TATA; not fully specified (C-terminus)) [BCY6034]
2.42	0.00242	987000	4.8	18.3	0.00597	327000	1.9	28.8	0.00364	126000	3.2		{DM1‑SS(SO3H)‑}-[βAla][Sar][Sar][Sar][Sar][Sar][Sar][Sar][Sar][Sar][Sar]A[hArg]DCPLVNPLCLHPGWTC (linker 15-22-29 via TATA; not fully specified (C-terminus)) [BCY6082]
3.41	0.00343	999000	3.5	21.8	0.00637	292000	1.8	166	0.00442	26700	2.6		{MMAE-PABC-Cit-Val-Glutaryl}-[βAla][Sar][Sar][Sar][Sar][Sar][Sar][Sar][Sar][Sar][Sar]A[hArg]DCPLVNPLCLHPGWTC (linker 15-22-29 via TATA; not fully specified (C-terminus)) [BCY6033]
												7.27	ACPLVNPLCLHPGWTCLHG (linker 2-9-16 via TATA; not fully specified (C-terminus)) [Bicycle Compound 73]
